Reference: patent US20120107299

System: GST protein [GST: P08515]
Sequence (P08515 whole entry): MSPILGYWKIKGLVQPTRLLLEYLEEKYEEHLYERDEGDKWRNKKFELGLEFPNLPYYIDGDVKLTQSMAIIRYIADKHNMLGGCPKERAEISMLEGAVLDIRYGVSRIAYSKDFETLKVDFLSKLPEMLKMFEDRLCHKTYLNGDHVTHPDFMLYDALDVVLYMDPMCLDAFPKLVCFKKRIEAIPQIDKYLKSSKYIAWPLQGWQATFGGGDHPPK

Substance: FLAG-PTEN
- in vitro dephosphorylation of PTEN, Western blot with anti-PTEN antibodies specific to each phosphorylation: dephosphorylation of PTEN was not recognized in the GST protein
